Residue numbers refer to the chain shown, from its start. Like-named read-outs stand apart in the source and are kept apart here.
Key:
[1] = molecular target: T1, human CD8 on human T cells (human, UniProt P01732 22-235); assay: flow cytometry on human CD8+ T cells, titration
T1 construct: whole, on cells; the antibodies were raised against human CD8 alpha; also called CD8 on human CD8+ T cells; hCD8
Method: (§1) The 24 humanized 02A01-derived anti-CD8 antibodies (excluding 02A01-VK3(D30E/N35Q)) were screened for their ability to bind human CD8 by evaluating binding to CD8+ T cells. The non-humanized parent (“02-Parent”) and the non-humanized parent comprising a heavy chain M39L liability mutation (“02-Parent-VH-M39L”) were used as controls. […] Cells were washed with 1×phosphate buffered saline (PBS) containing 1 mg/mL bovine serum albumin (PBS/BSA) and then stained with a 1:100 dilution of DyLight650-conjugated anti-human IgG H+L polyclonal antibody (ThermoFisher cat. no. Sa5-10129) in PBS/BSA. Following a 20-30 min incubation at 4° C., the cells were washed once with PBS/BSA, and then resuspended in PBS/BSA for analysis on a FACSCelesta using Diva software (BD Biosciences). The resulting data were analyzed using FlowJo. Data were quantified and reported as Max fluorescence intensity (MFI) of human IgG-Fc. […] Complete replacement of the HCDR1 (antibodies comprising VH5) eliminated binding to the CD8+ T cells.
(§2) Binding to human CD8+ T cells was tested at 7 serial 5-fold dilutions of each tested humanized 02A01 variant (from 50 nM to 3.2 pM). The resulting data were analyzed using FlowJo.

[2] = molecular target: T1, human CD8 on human T cells; assay: flow cytometry on human CD3+ T cells, apparent KD, 4PL fit
Method: (§3) The amino acid sequences of the resulting murine anti-CD8 antibodies 02A01, 03A01, 04D08, 05F10, and 11F05 are provided in Tables 1-3 herein above. These antibodies were recombinantly produced. Their binding affinity to CD8 expressed on the cell surface was measured by flow cytometry, and their respective binding affinities are reported in Table 8 and Table 9. Briefly, human or cynomolgus monkey CD3⁺ T cells were incubated with […] of anti-CD8 antibodies (from 250 nM to […]) for 30 minutes. Following the incubation, unbound antibodies were washed away, and the bound antibodies were detected with a AlexaFluor-647-labeled anti-human Fc detection antibody. The median fluorescence intensity of AlexaFluor-647 on the live cells was used to evaluate anti-CD8 antibody levels on the cell surface. Binding affinity (KD) values for anti-CD8 antibody T cell binding were determined with GraphPad Prism 7.0 using 4-Parameter logistic regression.

human CD8α/β [3] = molecular target: T2, human CD8α/β (human, UniProt P01732 22-182; P10966 22-170); assay: SPR, antibody captured on Protein A chip, hCD8α/β as analyte
T2 construct: Soluble heterodimer used in SPR and in the Carterra binning (there printed only as CD8α/β); also called hCD8α/β
T2 sequence (P01732 22-182, chain 1 of 2): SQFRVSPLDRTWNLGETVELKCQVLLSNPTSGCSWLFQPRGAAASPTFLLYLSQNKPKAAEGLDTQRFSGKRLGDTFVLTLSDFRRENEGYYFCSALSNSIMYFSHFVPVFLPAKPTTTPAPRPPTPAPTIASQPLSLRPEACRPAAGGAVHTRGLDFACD
T2 sequence (P10966 22-170, chain 2 of 2): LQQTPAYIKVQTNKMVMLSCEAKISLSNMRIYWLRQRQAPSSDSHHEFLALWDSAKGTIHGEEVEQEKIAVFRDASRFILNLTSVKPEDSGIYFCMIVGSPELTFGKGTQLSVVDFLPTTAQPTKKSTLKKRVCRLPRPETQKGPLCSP
Method: (§4) The binding affinities of six of the humanized anti-CD8 antibodies to human CD8 were also determined by surface plasmon resonance (SPR). Briefly, equilibrium dissociation constants for human CD8α/β were determined using a real-time SPR biosensor using a Protein A Sensor Chip (Cytiva) to capture purified anti-CD8 monoclonal antibodies at a concentration of 0.5 nM. SPR binding studies were performed in a buffer composed of Phosphate buffered saline, pH 7.2 containing 0.05% v/v Surfactant P20 (PBS-P20 buffer). Different concentrations of hCD8α/β prepared in PBS-P20 running buffer (ranging from 500 nM to 7.8 nM, 2-fold dilutions) were injected over the anti-CD8 monoclonal antibody captured surface. Association of hCD8α/β to the captured monoclonal antibody was monitored for 400 seconds and the dissociation of hCD8α/β in PBS-P20 running buffer was monitored for 600 sec. All of the binding kinetics experiments were performed at 25° C. Kinetic association (kₐ) and dissociation (kd) rate constants were determined by fitting the real-time sensorgrams to a 1:1 binding model using Scrubber 2.0c curve fitting software.

[4] = molecular target: T1, human CD8 on human T cells; assay: flow cytometry on human CD8+ T cells, titration, apparent KD
Method: as §1, §2

[5] = molecular target: T3, cynomolgus monkey CD8 on cynomolgus cells (cynomolgus monkey); assay: flow cytometry on cynomolgus CD3+ T cells, apparent KD, 4PL fit
T3 construct: whole, on cells; also called cynomolgus CD8
Method: as §3

human CD8α/β [6] = molecular target: T2, human CD8α/β; assay: SPR, antibody captured on Protein A chip, hCD8α/β as analyte, 1:1 fit
Method: as §4

[7] = molecular target: T1, human CD8 on human T cells; assay: flow cytometry on human CD8+ T cells, titration; remark: listed apart in the source
Method: (§5) The 16 above-referenced humanized 03A01-derived anti-CD8 antibodies were screened for their ability to bind human CD8 by evaluating binding to CD8⁺ T cells. The non-humanized parent (“03-Parent”) and the non-humanized parent comprising a heavy chain D64E liability mutation (“03-Parent-VH-D64E”) were used as controls. […] Cells were washed with 1×phosphate buffered saline (PBS) containing 1 mg/mL bovine serum albumin (PBS/BSA) and then stained with a 1:100 dilution of DyLight650-conjugated anti-human IgG H+L polyclonal antibody (ThermoFisher cat. no. Sa5-10129) in PBS/BSA. Following a 20-30 min incubation at 4° C., the cells were washed once with PBS/BSA, and then resuspended in PBS/BSA for analysis on a FACSCelesta using Diva software (BD Biosciences). The resulting data were analyzed using FlowJo. Data were quantified and reported as Max fluorescence intensity (MFI) of human IgG-Fc. […] Complete replacement of the LCDR1 (antibodies comprising VK4) eliminated binding to the CD8⁺ T cells.
(§6) The binding affinities of five of the above-referenced humanized anti-CD8 antibodies to human CD8 were determined by evaluating binding to CD8 human T cells using the method described above. Binding to human CD8+ T cells was tested at 7 serial 5-fold dilutions of each humanized 03A01 variant (from 50 nM to 3.2 pM). The resulting data were analyzed using FlowJo.

[8] = molecular target: T1, human CD8 on human T cells; assay: flow cytometry on human CD8+ T cells, titration, apparent KD; remark: listed apart in the source
Method: as §5, §6

[9] = molecular target: T1, human CD8 on human T cells; assay: flow cytometry, human CD8+ T cells, antibody at 0.2 nM, anti-human IgG detection (MFI AF647)
Method: as §1

[10] = molecular target: T1, human CD8 on human T cells; assay: flow cytometry, human CD8+ T cells, antibody at 5 nM, anti-human IgG detection (MFI AF647)
Method: as §5

T1 sequence (P01732 22-235): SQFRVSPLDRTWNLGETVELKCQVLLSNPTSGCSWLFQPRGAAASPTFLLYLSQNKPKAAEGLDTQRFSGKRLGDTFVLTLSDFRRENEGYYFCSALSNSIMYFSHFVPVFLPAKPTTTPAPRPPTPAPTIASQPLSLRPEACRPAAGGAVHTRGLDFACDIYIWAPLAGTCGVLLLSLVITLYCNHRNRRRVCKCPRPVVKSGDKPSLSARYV

B1: Murine 02A01 (antibody, V domains shown)
VH: EVQLQQSGPELVKPGASLKISCKASGYTFTDFTMHWVKQSHGKSLEWIGLVNPNNGGNIYNQNFKGKATLTVDTSSSTAYMELRSLTSEDSSVYYCGRVPLYTSHGMDYWGQGTSVTVSS
VL: DIVLTQSPAFLAVSLGQRATISCRASESVDSYDINSMHWYQQKPGQPPKLLIYRASHLQSGIPARFSGSGSRTDFTLTINFVEADDVATYYCQQSNEDPLTFGAGTKLELK
notes: Recombinantly produced IgG; also called 02-parental; 02-Parent
Fold Change to Parental Apparent KD [1]: 1 fold | Maximum CD8+ T cell Binding (MFI) [1]: 2900 MFI | Kd [2]: 0.047 nM | Fold Change to Parental Calculated KD (human CD8α/β [3]): 1 fold | Kd [4]: 0.057 nM | Kd [5]: 0.075 nM | Kd (human CD8α/β [6]): 9.29 nM

B2: Murine 03A01 (antibody, V domains shown)
VH: DVQFQESGPGLVKPSQSLSLTCTVTGYSITSDFAWNWIRQFPGNELEWMGYISYSGDTNYNPSLRSRISITRDTSKNQFFLQLDSVTTEDTATYYCTIRGYYTDSAFVFWGQGTLVTVSA
VL: DIQMTQSSSYLSVSLGGRVTITCKASDHINNWLAWYQQKPGNAPRLLISGATSLETGVPSRFTGSGSGLDYTLSITSLQTEDVATYYCQQYWNSPFTFGSGTKLEIK
notes: Recombinantly produced IgG; also called 03-parental; 03-Parent
Fold Change to Parental Apparent KD [7]: 1 fold | Kd [2]: 0.86 nM | Kd [8]: 0.926 nM | Kd [5]: 1.77 nM

B3: humanized 02A01-VH5-VK1 (antibody, human IgG1, V domains shown)
VH: EVQLVQSGAEVKKPGATLKISCKASGYTFTDYYMHWVQQAPGKGLEWIGLVNPNNGGNIYNQNFKGRATLTVDTSTSTAYMELSSLRSEDTSVYYCGRVPLYTSHGMDYWGQGTLVTVSS
VL: EIVLTQSPATLSVSPGERATISCRASESVDSYDINSMHWYQQKPGQPPRLLIYRASHLQSGIPARFSGSGSRTDFTLTISSVEPEDFATYYCQQSNEDPLTFGQGTKLEIK
notes: human IgG1 format; VH5 has the HCDR1 of the top human germline hit
binding result [9]: no binding (tested: 0.2 nM)

B4: humanized 02A01-VH5-VK2 (antibody, human IgG1, V domains shown)
VH: B3 VH
VL: B3 VL with P47A
notes: as for B3
binding result [9]: no binding (tested: 0.2 nM)

B5: humanized 02A01-VH5-VK3 (antibody, human IgG1, V domains shown)
VH: B3 VH
VL: B3 VL with V13L, P47A, V82L
notes: as for B3
binding result [9]: no binding (tested: 0.2 nM)

B6: humanized 03A01-VH2-VK2 (antibody, human IgG1, V domains shown)
VH: EVQFQESGPGLVKPSQTLSLTCTVSGYSITSDFAWNWIRQPPGKGLEWMGYISYSGDTNYNPSLRSRITISRDTSKNQFSLKLSSVTAADTAVYYCTIRGYYTDSAFVFWGQGTLVTVSS
VL: DIQMTQSPSTLSVSVGDRVTITCKASDHINNWLAWYQQKPGKAPKLLISGATSLETGVPSRFSGSGSGLEYTLTISSLQPDDFATYYCQQYWNSPFTFGQGTKLEIK
notes: human IgG1 format; also called 03-VH2/VK2
Fold Change to Parental Apparent KD [7]: 2 fold | Kd [8]: 1.84 nM

B7: humanized 03A01-VH1-VK3 (antibody, human IgG1, V domains shown)
VH: B6 VH with S25T, G45E, V93T
VL: B6 VL with V13A
notes: human IgG1 format; also called 03-VH1/VK3
Fold Change to Parental Apparent KD [7]: 1.7 fold | Kd [8]: 1.6 nM

B8: humanized 03A01-VH1-VK4 (antibody, human IgG1, V domains shown)
VH: B6 VH with S25T, G45E, V93T
VL: B6 VL with K24R, D27Q, H28S, N30S, N31S
notes: human IgG1 format; VK4 has the LCDR1 of the top human germline hit
binding result [10]: no binding (tested: 5 nM)

B9: humanized 03A01-VH2-VK3 (antibody, human IgG1, V domains shown)
VH: B6 VH
VL: B6 VL with V13A
notes: human IgG1 format; also called 03-VH2/VK3
Fold Change to Parental Apparent KD [7]: 2.1 fold | Kd [8]: 1.91 nM

B10: humanized 03A01-VH2-VK4 (antibody, human IgG1, V domains shown)
VH: B6 VH
VL: B6 VL with K24R, D27Q, H28S, N30S, N31S
notes: as for B8
binding result [10]: no binding (tested: 5 nM)

B11: humanized 03A01-VH3-VK1 (antibody, human IgG1, V domains shown)
VH: B6 VH with R65K, I68V
VL: B6 VL with P8S, V15L, K45R
notes: human IgG1 format; also called 03-VH3/VK1
Fold Change to Parental Apparent KD [7]: 1.8 fold | Kd [8]: 1.65 nM

B12: humanized 03A01-VH3-VK3 (antibody, human IgG1, V domains shown)
VH: B6 VH with R65K, I68V
VL: B6 VL with V13A
notes: human IgG1 format; also called 03-VH3/VK3
Fold Change to Parental Apparent KD [7]: 2.1 fold | Kd [8]: 1.98 nM

B13: humanized 03A01-VH3-VK4 (antibody, human IgG1, V domains shown)
VH: B6 VH with R65K, I68V
VL: B6 VL with K24R, D27Q, H28S, N30S, N31S
notes: as for B8
binding result [10]: no binding (tested: 5 nM)

B14: humanized 03A01-VH4-VK4 (antibody, human IgG1, V domains shown)
VH: B6 VH with M49I, N59Y, R65K, I68V
VL: B6 VL with K24R, D27Q, H28S, N30S, N31S
notes: as for B8
binding result [10]: no binding (tested: 5 nM)

B15: 05F10 (antibody, V domains shown)
VH: EVQLVESGGGLVKPGGSLKLSCAASGFTFSSFAMSWVRQTPAKRLEWVATISSGDLSANYPDTVKGRFTISRDNAKNTLYLQMSSLRSEDTAMYYCTRPPFYFSNDWFAYWGQGTLVTVSA
VL: DVVMTQTPLSLPVSLEDQASISCRSSQSLEHSNGNTYLHWYLQKPGQSPRLLIYKVSNRFSGVPDRFSGSGSGTDFTLKISRVEAEDLGVYFCSQSTHVPFTFGSGTKLEIK
notes: Recombinantly produced murine anti-CD8 IgG
Kd [2]: 0.242 nM | Kd [5]: 39.8 nM
